{"source": "the DeepSol protein solubility set"}
{"assay": "soluble on expression in E. coli; label from the status in PepcDB or PDB records"}
{"sequence": "MLRSVPFDLVTRLMTTHFVSRQIFIGSGRVGIGEHSENAGYQLSQRADYFHMKVGLQTTFDRPIINTRDESHSTDEYRRLHVIVGDANRMDVPQALKLGTTSMLLWLLEHADMAEIDLNEALGPLTLADPVEAMHTVSHDLTLAAPLPLETGGTTTAWQMQVTLRGLVYAAAATVYGTDTSGEPAWPDRSTRNIMAMWGQALADVATVRHADDDGRLTMREQASRLEWLLKWQLLEKLRRKTGSDWTDRRLAAVDLKWAALDPADSIFTRLAGQTERLVTDKQLAEAVGQAPADTRAWLRAEIVRRFPEQVIAASWSHLTVRGESSGDENVENSMVSLDMSNPLKFTESLCSEAFERVHTASGIVESLR", "soluble on expression in E. coli": "not soluble"}
{"sequence": "GTIVITGTITDQTCTIEDPSPGYIKVVHLPTISKSALKNAGDVAGRTRFDIKLKDCPTTVNTLKLYFEPGPTTDYGTKDLKAYKQAWYVDAATLLKSPPSVTEAKGVQIRLMNLNGKQIPMGETEPNQHAAAFSGTMQAGQAKKSFTLHYLAGYVKKASGEVEATMLTTYVGFSVVYP", "soluble on expression in E. coli": "not soluble"}
{"sequence": "MGSDKIHHHHHHMDEQLEQLMRQLSGLNEQVRNGAVYQSLGTRLGKLMDGIQRRRRTAVVLPDDQDGVKDVLAELRHQLEQNVPVTLTHEKLTLLTAHLSSTDMALRYQGINFTLYDALQQDALDSAQMAFLLDELSRPDALFSHILEPANTAVFGRSARVAMLAVILHFVTPDVQSHTPDLRRIVILAAMYLCLETDTRGFVNQHGWAHAFTAITDLLTVLAGTEALPRADKLFLMMTLLERVKRLNTPLIYGENDRMAMYLSELANRHQLYADTLLLSLKQWRQQVALHRRPDTIAGWNRFFNRKRLLDSLRLQSELPASLQKYLNSTIDFLG", "soluble on expression in E. coli": "not soluble"}
{"sequence": "MSLKITNEMQTKAETKIHRTTKVGDPSFQQMVQSQTKQLNQQQFHQLVQQISKQGSKLAQYRSFRELVKFKRMVKSFLDKAVVQGYKLEKSHSFGLQGSRHLSIVKAVDEKLIQLAEDIMDEEKKTVDILGLIGEIKGLLINIYTEGHHHHHH", "soluble on expression in E. coli": "soluble"}
{"sequence": "MGSDKIHHHHHHAALYARWAPTHSAAPAAEQQRKVLFWYDPMYPNTRFDKPGKSPFMDMDLVPKYADEEHAAAGAPGVRIDPTQTQNLGVKTAAVTRGPLRYAQTFPANISYNEYQYVIMQARAAGFINKVYPLTVGDKVKQGTPLLELTIPDWVEAQSEYLLLQETGGTATQVEGILERLRLAGMPDDDIRRLKATRKIQTRFTLTAPIDGVITAFDLRAGMNIAKDNVVAKIQGMDPVWVSVAVPESIAWLIKDASQFSIQVPAWPGKTFRISKWTLLPSVDSATRTLQLRLQVNNPDEALKPGMNAYLQLTSESAPMLLIPSKALIDSGSEQRVITVDNEGRFVPKRVQVFHESAGVTAIRSGLQEGEKVVARGLFLIDSEANIAGALERMRAQAPDAAASAAHAH", "soluble on expression in E. coli": "not soluble"}
{"sequence": "MARRGNKAIRATVSMKIALSEPLLVLVNNYVKALRFTLFWLKENVPNPEEKGVLSKVHEALYEKLREEYNLPSKVAEDCYREALATYKGWYNNPRRGRFPRVYRPTVWLTPRASYNVDFEAMTVRIVSVGELSILGYPRNLKEYMGWKMKEARLVIRDDKAFLKVVFEKEEQKVEPKESIAVDINMAEVVVGKDDKNYVRIPTRLEEVHHWKSLAERLLKKYPRRWRENKRILYRVRSFHLKARRIMEDFARKVGKWVVDVAKRMGVNVIKLESLKNLIKSVEKLSKEFRDKLYLMQYRRLQYWISWQAKKRGMTVEFVNPSYSSVSCPKCGKRMVEVSHRWFKCSCGYENDRDVIAIMNLNGRGSLTLSTAPQMRDVNPNRLEHHHHHH", "soluble on expression in E. coli": "not soluble"}
{"sequence": "MIIVHHLNNSRSQRILWLLEELGLPYEIKRYQRDPKTNLAPPELKAIHPLGKSPVIEDGPHVVIESGAIVDYLIRRHGDGRLQPDPASATYDEYVQWLHFAEGSAILPLMLNLYVGRLGDAGAPLHPRIHSELANYLGYLNEALGLTPYLLGDELSGADIQMSFIGEFAKMQGMLQPHPNLAAWVQRCQERPAYRQALEQGGEYSFAK", "soluble on expression in E. coli": "not soluble"}
{"sequence": "GWLDLAPSTQVDTETSINVLSDIEFTLNGIYSTMQSSDAYSGRLVYYGDVTGDDMQAVSSTKRTGNYYRFNFTKDNGPSSHWSYLYSIIQNCNLILMNVDKLSIDEDETEYKNDLKGQALAIRGMALFDLTRIFGYPYLKDNGASLGVPIVKELSTIDSKPARNTVAECYTEIISDLKNSTELLSGDFNKGKVNRWAAMTLLSRVYLYKGEYNEALTMAENAIKGAEKEGYALWTNEEYPTAWGNDASASNPGEILFEIVNLTTDSPGKESMGYLNSYNGYDDMCITCSFYQLLKKDPKDVRLKILSFDKKYYAYVNKYQPQQGENITDANIPLIRLSEAYLNAAEAAVQTGDNAKAVKYLNSIVQRANPENSVEGKTLTLENVLDERRKELVAEGHRMYDVIRNGMTVKRIDVKDSDINKTKHNTAYMEYDWNFHKILLPIPKKEMDANPNMKQNPGYVD", "soluble on expression in E. coli": "soluble"}
{"sequence": "MEELTIWEQHTATLYKDPRRGFGIAVSGGHDRASGSVVVSDVVPGGPAEGRLRTGDHIVMVNGVSVENVTSAFAIQILKTCTKTANVTVKRPRRVQLPATKASPASGHQLSDQEEADHGRGYEGDSSSGSGRSWGERSRRSRAGRRGRVGSHGRRSSGGGSEANGLDLVSGYKRLPKQDVLMRPLKSVLVKRRNSEEFGVKLGSQIFIKHITESGLAARNHGLQEGDLILQINGVSSANLSLSDTRRLIEKSEGELTLLVLRDSGQFLVNIPPAVSDSDSSLMEDISDLTSELSQAPPSHVPPPPLKGQRSPEDSQTDSPVETPQPRRRERSVNSRAIAEPESPGESRYDIYRVPSRQSLEDRGYSPDTRVVSFPKGASIGLRLAGGNDVGIFVSGVQAGSPADGQGIQEGDEILQVNGMPFRNLTREEAVQFLLGLPPGEDMELVTQSKQDIFKKMVQSRVGDSFYIRTHFELEPSPPYGLGFTRGDVFHVVDTLYPGSGPGHGHSSHGGLWLAARMGRDLREQERGVIPNQSRAEQLASLEAAQRAAGVGPGASVGSNPRAEFWRLRGLRRGTKKASTQRSREDLSALTRQGHYPPYERVVLREASFKRPVVILGPVADIAMKKLTTEMPEEFEIAESMSRTDSPSKIIKLDTVRVIAERDKHALLDVTPSAIERLNYVQYYPIVIFCAPESRPALKALREWLAPASRRSSRRLYAQAQKLQKHSGHLFTATIPLHGTSDSWYQEVKAVIQQQQARPIWTAEDQLNSSSEDLDLPGHGLAASSGDLSCDSRTNSDYEDTDGEGAYTDREGGPQDVDEEVAPTALARSSEPVWVDDHQGLMGHGTTITDKWETQADSHYTQDQRRQDSMRTYKHEALRKKFTRARDVESSDDEGYDWGPATDL", "soluble on expression in E. coli": "soluble"}
{"sequence": "MSLKTLTRFLIIPMLSVAFFSCSESHFLKDVAYRNQVTQDFEMKKQQLPNGELFAVFNEKLTIPEQEALMFLYAYMPTGDVTDYTGDYYLENVRLSDQARREMPWGKEIPDDVFRHFVLPIRVNNENLDDSRRVFYNELKDRVKNLSLHDAVLEVNHWCHEKVIYTPSDARTSAPLASVKTAYGRCGEESTFTVAALRSVGIPARQVYTPRWAHTDDNHAWVEAWVDGKWYFFGACEPEPVLNLGWFNAPASRGMLMHTKVFGRYTGEGHHHHHH", "soluble on expression in E. coli": "not soluble"}
{"sequence": "MSSEPPPPPQPPTHQASVGLLDTPRSRERSPSPLRGNVVPSPLPTRRTRTFSATVRASQGPVYKGVCKCFCRSKGHGFITPADGGPDIFLHISDVEGEYVPVEGDEVTYKMCSIPPKNEKLQAVEVVITHLAPGTKHETWSGHVISS", "soluble on expression in E. coli": "soluble"}
{"sequence": "MGSDKIHHHHHHVIIESRIEKGKPVVGMETTVFVHGLPRKEAIELFRRAKEISREKGFQLAVIGILKGKIVAGMSEEELEAMMREGADKVGTREIPIVVAEGKNAATTVSATIFLSRRIGIEVVVTGGTGGVHPGRVDVSQDLTEMSSSRAVLVSSGIKSILDVEATFEMLETLEIPLVGFRTNEFPLFFSRKSGRRVPRIENVEEVLKIYESMKEMELEKTLMVLNPVPEEYEIPHDEIERLLEKIELEVEGKEVTPFLLKKLVEMTNGRTLKANLALLEENVKLAGEIAVKLKRS", "soluble on expression in E. coli": "soluble"}
{"sequence": "MFADLDYDIEEDKLGIPTVPGKVTLQKDAQNLIGISIGGGAQYCPCLYIVQVFDNTPAALDGTVAAGDEITGVNGRSIKGKTKVEVAKMIQEVKGEVTIHYNKLQADPKQLEVLFNGPGIESVKI", "soluble on expression in E. coli": "soluble"}
{"sequence": "MGSDKIHHHHHHMLAEERQQMIAHYVDEHQICRVTELCRLTSTSESTIRRDLSEMEDRGLLKRVHGGAQSLQTFGQDVAQQIRFNLNKDDKLAIARLAARKVHPHDYLFLDAGTTIYEMVPFLKEISGLHVVTNGLETALALTDAGIDCCLLGGHVKRQTHAAIGATTVSRLQELNFNAAFIGANALSPAGFLTTPDTEEAAVKRTAIQQSQQAFVLIDRSKFNAVTFAEFAKTDQVTIISRLEAGDREKLPVNIQLEEAE", "soluble on expression in E. coli": "not soluble"}
{"sequence": "MGSDKIHHHHHHMRYFSTDSPEVKTIVAQDSRLFQFIEIAGEVQLPTKPNPFQSLVSSIVEQQLSIKAASAIYGRVEQLVGGALEKPEQLYRVSDEALRQAGVSKRKIEYIRHVCEHVESGRLDFTELEGAEATTVIEKLTAIKGIGQWTAEMFMMFSLGRLDVLSVGDVGLQRGAKWLYGNGEGDGKKLLIYHGKAWAPYETVACLYLWKAAGTFAEEYRSLEELLHHGNQC", "soluble on expression in E. coli": "soluble"}
{"sequence": "QVQLVESGGGLVQPGGSLRLSCAASGFTFNSYWINWVRQAPGKGLEWVSGIAYDSSNTLYADSVKGRFTISRDNSKNTLYLQMNSLRAEDTAVYYCARGLGAFHWDMQPDYWGQGTLVTVSSASTKGPSVFPLAPSSKSTSGGTAALGCLVKDYFPEPVTVSWNSGALTSGVHTFPAVLQSSGLYSLSSVVTVPSSSLGTQTYICNVNHKPSNTKVDKKVEPKSCDKTH", "soluble on expression in E. coli": "soluble"}
{"sequence": "MGHHHHHHGGHMSLAAQELLRDAFTRLIEHVDELTDGLTDQLACYRPTPSANSIAWLLWHSARVQDIQVAHVAGVEEVWTRDGWVDRFGLDLPRHDTGYGHRPEDVAKVRAPADLLSGYYHAVHKLTLEYIAGMTADELSRVVDTSWNPPVTVSARLVSIVDDCAQHLGQAAYLRGIAEGGS", "soluble on expression in E. coli": "soluble"}
{"sequence": "ATHTAQTQTHLNFTQIKTVDELNQALVEAKGKPVMLDLYADWCVACKEFEKYTFSDPQVQKALADTVLLQANVTANDAQDVALLKHLNVLGLPTILFFDGQGQEHPQARVTGFMDAETFSAHLRDRQPHHHHHH", "soluble on expression in E. coli": "soluble"}
{"sequence": "GPGSMSVLVKGWGRGTCKINHIRDDDISSSESEGDDANVAVPLEELNVGTQHMITEEMRFRLRRKEKLSVQDDELGRLREAMRRQVFASGLLQPGQSAGVAPRRAEIIFSCAVEIQSSGLMEEAPTASPRVGDTSAWLKQLRKFILDRVPFQRSVRVMVPRTWLARAQETDVV", "soluble on expression in E. coli": "not soluble"}
{"sequence": "QRWSLPSLDPFGDRETAIETVGETVETSIDAVDTDSLAIAFSGGVDSALLAARLDAPLYVAGFPDSHDIEAARSAAELLGTEVRVVELTHDAIERAVPEIARATARTNAMDVQIALPLYLVAERVAGDGFDRLALGQGADELFGGYAKVAKAPEDPRVEADTVRGAQREVIASLPDQLERDVLALRAAGVEPVTPLLHDRVIGAALRLDGDLLVDGETRKVALRAAARESLPDEIADRDKKAAQYGSLAARELDRLARQAGYKRRMDDHVTQYVESLVE", "soluble on expression in E. coli": "not soluble"}
{"sequence": "MKKAYLVWGMAALLSLGVAQQAGGLTLEGVEALRQEARKAYPVGFVDLAPWKRALEAAEALAKQNPNDLRALRLLAEIYTETQWAIRAWEAWMNYREKGGTWDEAARQAAAKVARTLAFYANQRGDRAEAERWAAQAQAVEAGQ", "soluble on expression in E. coli": "soluble"}
